Experimental data as given in PMC6533321 (EJNMMI Research, 2019).
Blank lines part the entries; values can stand above or below the compound they belong to. Residues, ends and D or L forms follow the SMILES beside them.

Assays:
hSST3 = target: T1, hSST3 (Homo sapiens, UniProt P32745); assay: Competition binding against [^125I-Tyr^25]LTT-SS28 in HEK293-hSST3 cell membranes; details: mean ± sd, read-out: IC50 (displacement of [^125I-Tyr^25]LTT-SS28)
T1 construct: expressed in transfected cells; donated by Prof; S. Schultz, Jena
Experimental: (§1) The HEK293 cell line was transfected to stably express each of the hSST2/3/5 and the resultant HEK293-hSST2/3/5 cells used for receptor affinity assessments were donated by Prof. S. Schultz (Institute of Pharmacology and Toxicology, University Hospital, Friedrich Schiller University Jena, Germany). Cells were cultured at 37 °C and 5% CO2 in Dulbecco’s modified Eagle’s medium containing 10% fetal bovine serum, 100 U/mL penicillin, […] G418, as previously described. Culture reagents were from Gibco BRL, Life Technologies, and Biochrom KG Seromed.
[^125I-Tyr^25]LTT-SS28 served as radioligand and LTT-SS28 ([Leu^8,DTrp^22,Tyr^25]SS28) as reference compound [28, 30, 32]. Briefly, radioligand (70 μL, 50 pM corresponding to ≈ 40,000 cpm), test peptide (30 μL solution of increasing concentrations, 10^− 5–10^− 13 M), and membrane homogenates (200 μL) were added to each assay tube (total volume of 300 μL in binding solution: 50 mM HEPES pH 7.4, 1% BSA, 5.5 mM MgCl2, 35 μM bacitracin) in triplicates for each concentration point. Samples were incubated for 60 min at 22 °C in an Incubator-Orbital Shaker unit (MPM Instr. SrI). […] Filters were collected, and their activity measured in a γ-counter (automated well-type multisample gamma counter; NaI(Tl) 3″ crystal, Canberra Packard Auto-Gamma 5000 series instrument).

hSST2 = target: T2, hSST2 (Homo sapiens, UniProt P30874); assay: Competition binding against [^125I-Tyr^25]LTT-SS28 in HEK293-hSST2 cell membranes; details: mean ± sd, read-out: IC50 (displacement of [^125I-Tyr^25]LTT-SS28)
T2 construct: expressed in transfected cells; donated by Prof; S. Schultz, Jena
Experimental: as §1
(§2) [^125I-Tyr^25]LTT-SS28 served as radioligand and LTT-SS28 ([Leu^8,DTrp^22,Tyr^25]SS28) as reference compound [28, 30, 32]. Briefly, radioligand (70 μL, 50 pM corresponding to ≈ 40,000 cpm), test peptide (30 μL solution of increasing concentrations, 10^− 5–10^− 13 M), and membrane homogenates (200 μL) were added to each assay tube (total volume of 300 μL in binding solution: 50 mM HEPES pH 7.4, 1% BSA, 5.5 mM MgCl2, 35 μM bacitracin) in triplicates for each concentration point. Samples were incubated for 60 min at 22 °C in an Incubator-Orbital Shaker unit (MPM Instr. SrI). […]

hSST5 = hSST5 (Homo sapiens, UniProt P35346); assay: Competition binding against [^125I-Tyr^25]LTT-SS28 in HEK293-hSST5 cell membranes; details: mean ± sd, read-out: IC50 (displacement of [^125I-Tyr^25]LTT-SS28)
Experimental: as §1, §2

[1] = tested on: patient with a well-differentiated NET; assay: PET/CT in a patient with well-differentiated NET; details: human, in vivo
Experimental: Despite octreotide therapy, the disease was progressing, and in 2015, the patient was treated with peptide receptor radionuclide therapy (PRRT), administering 5 GBq of [^90Y]Y-DOTA-TOC. […] Written informed consent was obtained from the patient in accordance with paragraph 37 of the updated Declaration of Helsinki, ‘Unproven Interventions in Clinical Practice’, and in accordance with the German Medical Products Act AMG §13 2b.

normal liver = details: in vivo; cited from earlier work
[2] = tested on: MPC-mCherry tumour-bearing NMRI-nude mice; assay: Ex vivo biodistribution 60 min p.i.; details: female, mouse, in vivo, iv, 1 h
Experimental: (§3) A number of 2 × 10^6 MPC-mCherry cells were transplanted subcutaneously into the right shoulder of female NMRI-nude mice (8 to 10 weeks old, RjOrl:NMRI-Foxn1^nu /Foxn1^nu, Janvier Labs). […] Animals were sacrificed at 60 min post-injection (p.i.). […] The activity of the tissue samples was decay-corrected and calibrated by comparing the counts in tissue with the counts in aliquots of the injected radiotracer that had been measured in the γ-counter at the same time. The activity in the selected organs was expressed as percent-injected activity per organ (%IA) and the activity concentration in tissues and organs as standardised uptake value (SUV in [MBq activity/g tissue]/[MBq injected activity/g body weight]). Values are quoted as mean ± standard deviation for each group of animals.

[3] = Ex vivo biodistribution 60 min p.i.; details: female, NMRI-nude, mouse, in vivo, iv, total radioactivity
Experimental: as §3

hSST5, sequence (P35346 whole entry): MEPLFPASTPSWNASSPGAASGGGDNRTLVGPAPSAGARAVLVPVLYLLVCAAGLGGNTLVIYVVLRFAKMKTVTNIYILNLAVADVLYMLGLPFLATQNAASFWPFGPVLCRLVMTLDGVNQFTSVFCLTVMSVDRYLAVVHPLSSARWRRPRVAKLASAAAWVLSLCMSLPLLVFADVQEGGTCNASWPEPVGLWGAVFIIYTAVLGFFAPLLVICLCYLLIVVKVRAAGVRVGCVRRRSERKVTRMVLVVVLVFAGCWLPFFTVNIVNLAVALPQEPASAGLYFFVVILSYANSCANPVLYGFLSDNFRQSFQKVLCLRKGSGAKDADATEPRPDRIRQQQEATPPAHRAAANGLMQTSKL
T1 sequence (P32745 whole entry): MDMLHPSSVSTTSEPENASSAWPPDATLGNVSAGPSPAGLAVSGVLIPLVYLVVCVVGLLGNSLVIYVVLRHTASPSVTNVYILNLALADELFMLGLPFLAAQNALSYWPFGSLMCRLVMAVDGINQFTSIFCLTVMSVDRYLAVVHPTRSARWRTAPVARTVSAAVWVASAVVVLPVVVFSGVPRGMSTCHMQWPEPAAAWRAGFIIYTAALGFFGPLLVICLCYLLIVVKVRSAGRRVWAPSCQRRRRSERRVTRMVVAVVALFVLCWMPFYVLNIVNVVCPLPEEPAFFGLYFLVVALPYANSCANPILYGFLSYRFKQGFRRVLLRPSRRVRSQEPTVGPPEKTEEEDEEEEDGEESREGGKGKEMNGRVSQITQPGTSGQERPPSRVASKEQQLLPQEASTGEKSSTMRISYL
T2 sequence (P30874 whole entry): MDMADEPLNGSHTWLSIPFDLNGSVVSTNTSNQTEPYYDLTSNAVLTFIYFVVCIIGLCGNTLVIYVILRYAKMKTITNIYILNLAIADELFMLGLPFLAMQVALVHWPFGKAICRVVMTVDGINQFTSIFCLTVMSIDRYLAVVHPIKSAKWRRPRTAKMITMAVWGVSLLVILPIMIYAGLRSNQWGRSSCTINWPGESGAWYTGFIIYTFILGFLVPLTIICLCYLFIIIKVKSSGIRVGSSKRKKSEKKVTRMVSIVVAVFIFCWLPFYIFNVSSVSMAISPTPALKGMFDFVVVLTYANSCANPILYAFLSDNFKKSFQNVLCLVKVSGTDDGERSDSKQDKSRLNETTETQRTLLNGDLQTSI

IC50 (hSST3): 90 ± 10 pM
IC50 (hSST2): 50 ± 10 pM
IC50 (hSST5): 170 ± 30 pM
Structure (SMILES): CC(C)C[C@H](NC(=O)[C@H](C)NC(=O)[C@@H]1CCCN1C(=O)[C@H](CC(N)=O)NC(=O)[C@H](CO)NC(=O)[C@H](CC(N)=O)NC(=O)[C@H](C)NC(=O)[C@@H](N)CO)C(=O)N[C@@H](C)C(=O)N1CCC[C@H]1C(=O)N[C@@H](CCCN=C(N)N)C(=O)N[C@@H](CCC(=O)O)C(=O)N[C@@H](CCCN=C(N)N)C(=O)N[C@@H](CCCCN)C(=O)N[C@@H](C)C(=O)NCC(=O)N[C@H]1CSSC[C@@H](C(=O)O)NC(=O)[C@H](CO)NC(=O)[C@H]([C@@H](C)O)NC(=O)[C@H](Cc2ccc(O)cc2)NC(=O)[C@H]([C@@H](C)O)NC(=O)[C@H](CCCCN)NC(=O)[C@@H](Cc2c[nH]c3ccccc23)NC(=O)[C@H](Cc2ccccc2)NC(=O)[C@H](Cc2ccccc2)NC(=O)[C@H](CC(N)=O)NC(=O)[C@H](CCCCN)NC1=O [LTT-SS28] (HELM PEPTIDE1{S.A.N.S.N.P.A.L.A.P.R.E.R.K.A.G.C.K.N.F.F.[dW].K.T.Y.T.S.C}$PEPTIDE1,PEPTIDE1,17:R3-28:R3$$$V2.0)

Structure (SMILES): C[C@@H](O)[C@@H]1NC(=O)[C@H](CCCCN)NC(=O)[C@@H](Cc2c[nH]c3ccccc23)NC(=O)[C@H](Cc2ccc(O)cc2)NC(=O)[C@@H](NC(=O)[C@@H](Cc2ccccc2)NC(=O)CN2CCN(CC(=O)O)CCN(CC(=O)O)CCN(CC(=O)O)CC2)CSSC[C@@H](C(=O)N[C@H](CO)[C@@H](C)O)NC1=O [[^68Ga]Ga-DOTA-TOC, metal not drawn]
SUV, blood [1]: 2.0 SUV
SUV, liver [1]: 23.1 SUV
SUV, pituitary [1]: 23.7 SUV
SUV, target lesion [1]: 71.1 SUV
SUVmax of the liver, previous value reported (normal liver): 12.8 ± 3.6
Intestine uptake [2]: 2.11±1.33 %IA
Tumour radioactivity concentration [2]: 4.52 ± 1.96 SUV
Tumour uptake [2]: 2.40±1.94 %IA
SUV at 1 h ([3]; Blood radioactivity concentration): 0.06 ± 0.01 SUV
tissue uptake dose at 1 h ([3]; Brain uptake): 0.02 ± 0.01 %ID
tissue uptake dose at 1 h ([3]; Femur uptake): 0.04 ± 0.04 %ID
tissue uptake dose at 1 h ([3]; Kidneys uptake): 3.34 ± 0.87 %ID
tissue uptake dose at 1 h ([3]; Liver uptake): 0.45 ± 0.09 %ID
tissue uptake dose at 1 h ([3]; Lung uptake): 0.12 ± 0.01 %ID
tissue uptake dose at 1 h ([3]; Ovaries uptake): 0.02 ± 0.01 %ID
tissue uptake dose at 1 h ([3]; Pancreas uptake): 0.42 ± 0.06 %ID
tissue uptake dose at 1 h ([3]; Stomach uptake): 1.34 ± 0.39 %ID
tissue uptake dose at 1 h ([3]; Thyroid uptake): 0.01 %ID
dose excreted at 1 h ([3]; Urine calc.): 83.3 ± 3.73%
